Consider 2 substances from patent US8283126B2, “Voltage sensor domains of voltage-dependent ion channel proteins and uses thereof” (The Rockefeller University, priority 2003, dated 2012).

Test [1] deals with T1, isolated voltage sensor domain (S1-S4) of KvAP (Aeropyrum pernix, UniProt Q9YDF8).
T1 construct: encoding Met1 to Lys147 was cloned into a pQE60 expression vector; made in house; host or cells: E. coli XL1-Blue
T1 sequence (Q9YDF8 with tags, fused parts or gaps): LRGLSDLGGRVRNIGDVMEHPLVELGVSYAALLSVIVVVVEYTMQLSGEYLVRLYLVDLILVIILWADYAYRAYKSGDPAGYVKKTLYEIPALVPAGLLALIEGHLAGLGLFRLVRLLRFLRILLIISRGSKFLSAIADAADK
Nature of the test: Binding of toxins to isolated voltage sensor domain immobilized on Co2+ affinity column, reverse phase HPLC of eluate. The note with it: voltage sensor domain on Co2+ resin column versus control column without domain; elution with 400 mM imidazole. The procedure:
Isolated voltage sensor was expressed and purified according to Example 5. To generate the voltage sensor domain column for isolation of toxins, 0.1 ml of Co^2+ resin was washed with water and then equilibrated with Buffer A (20 mM Tris pH 8.0, 100 mM KCl, and 10 mM DM) in an eppendorf tube by 3-4 rounds of centrifugation (500 rpm) to collect resin, careful removal of the supernatant with a pipette and resuspension of the resin in either 1 ml of water or 0.4 ml of Buffer A.
Approximately 2 mg of voltage sensor domain was added to the equilibrated resin. The resin and voltage sensor domain protein were incubated for ˜15 minutes. The resin was then applied to a micro chromatography column (Biorad). Samples of the voltage sensor domain prior to addition to the resin and the flow through after addition of resin to the column was kept and later run on an SDS gel to ensure that an excess of protein has been added to the resin and saturated with protein. […]
Remaining protein was eluted from both columns with 0.1 ml of Buffer A containing 400 mM imidazole and reduced with 50 mM DTT at 37° C. for 2 hours to improve separation by reverse phase high performance liquid chromatography (HPLC). […] Peaks are collected and analyzed by MALDI-TOF mass spectrometry focusing on the low molecular weight range (˜800-10,000 Da).

The target in the next test is T2, KvAP channel (Aeropyrum pernix, UniProt Q9YDF8).
T2 construct: made in house; host or cells: Escherichia coli
T2 sequence (Q9YDF8 14-295 limits assumed): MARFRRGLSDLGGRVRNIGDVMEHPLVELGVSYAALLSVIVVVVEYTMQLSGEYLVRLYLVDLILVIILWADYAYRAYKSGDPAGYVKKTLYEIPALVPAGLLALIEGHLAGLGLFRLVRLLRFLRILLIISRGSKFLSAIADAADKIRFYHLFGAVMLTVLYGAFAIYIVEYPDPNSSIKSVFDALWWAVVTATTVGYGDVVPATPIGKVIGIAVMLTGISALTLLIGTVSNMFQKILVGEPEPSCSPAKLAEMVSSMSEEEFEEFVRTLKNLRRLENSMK
Briefly: Electrophysiological assay of KvAP channels reconstituted into planar lipid bilayers. Format: biochemical. An excerpt: KvAP channels were expressed in Escherichia coli, extracted with decylmaltoside, purified and reconstituted into planar lipid bilayers of 1-palmitoyl-2-oleoyl-phosphotidylglycerol (POPG) and 1-palmitoyl-2-oleoyl-phosphotidylethanolamine (POPE) for functional studies.
To examine the structural similarity of KvAP to eukaryotic K^+ channel pores, the ability of a small protein toxin from scorpion venom to inhibit the KvAP channel was examined.
To determine the orientation of channels incorporated into planar lipid bilayers, we used CTX, which causes inhibition by binding only to the extracellular side. KvAP channels open in response to membrane depolarization (e.g., when the voltage of the CTX-insensitive (intracellular) side of the membrane is made positive relative to the CTX-sensitive (extracellular) side. KvAP channels are strongly voltage-dependent, opening as a function of membrane voltage, similar to Shaker and other eukaryotic neuronal Kv channels.
The isolate voltage sensor immobilized to a resin in the column efficiently purifies toxins from tarantula venom (FIG. 3A).

On to “VSTX1 (ECGKFMWKCKNSNDCCKDLVCSSRWKWCVLASPF)”, for which the “binding to the isolated voltage sensor domain” value in test [1] is “binds to the domain”. For the same substance, the “inhibition of KvAP channel currents” value with KvAP channel (currents elicited by a +100 mV depolarization) is reported as “inhibits KvAP channel currents”.

Regarding charybdotoxin [CTX, reference compound], the equilibrium dissociation constant (Kd) with KvAP channel (KvAP channel in planar lipid bilayers, read-out: dissociation constant (Kd) for inhibition of the KvAP channel) is ~400 µM.

Broadly, the Kd is the equilibrium constant for the complex coming apart.
